The text below walks through data of article PMC8601423 (PLoS ONE, 2021).

B1: SARS-CoV-2 RBM peptide E484-Y508 with Q506-Y508 removed (C-terminal truncation, on peptide array) (peptide)
peptide: EGFNCYFPLQSYGFQPTNGVGY
B2: SARS-CoV-2 RBM peptide S438-K462 with S438-D442 removed (N-terminal truncation, on peptide array) (peptide)
peptide: SKVGGNYNYLYRLFRKSNLK
B3: SARS-CoV-2 RBM peptide S438-K462 with S459-K462 removed (C-terminal truncation, on peptide array) (peptide)
peptide: SNNLDSKVGGNYNYLYRLFRK
B4: SARS-CoV-2 RBM peptide E484-Y508 with E484 and G485 removed (N-terminal truncation, on peptide array) (peptide)
peptide: FNCYFPLQSYGFQPTNGVGYQPY
B5: SARS-CoV-2 RBM 20mer F486-Y505 (on peptide array) (peptide)
peptide: not shown

For this test, the target named is human ACE2-Fc (Q18-S740) recombinant protein (human, UniProt Q9BYF1 18-740). The test can be described thus: peptide or protein array. Conditions: both partners purified.
Sequence of human ACE2-Fc (Q18-S740) recombinant protein (Q9BYF1 18-740): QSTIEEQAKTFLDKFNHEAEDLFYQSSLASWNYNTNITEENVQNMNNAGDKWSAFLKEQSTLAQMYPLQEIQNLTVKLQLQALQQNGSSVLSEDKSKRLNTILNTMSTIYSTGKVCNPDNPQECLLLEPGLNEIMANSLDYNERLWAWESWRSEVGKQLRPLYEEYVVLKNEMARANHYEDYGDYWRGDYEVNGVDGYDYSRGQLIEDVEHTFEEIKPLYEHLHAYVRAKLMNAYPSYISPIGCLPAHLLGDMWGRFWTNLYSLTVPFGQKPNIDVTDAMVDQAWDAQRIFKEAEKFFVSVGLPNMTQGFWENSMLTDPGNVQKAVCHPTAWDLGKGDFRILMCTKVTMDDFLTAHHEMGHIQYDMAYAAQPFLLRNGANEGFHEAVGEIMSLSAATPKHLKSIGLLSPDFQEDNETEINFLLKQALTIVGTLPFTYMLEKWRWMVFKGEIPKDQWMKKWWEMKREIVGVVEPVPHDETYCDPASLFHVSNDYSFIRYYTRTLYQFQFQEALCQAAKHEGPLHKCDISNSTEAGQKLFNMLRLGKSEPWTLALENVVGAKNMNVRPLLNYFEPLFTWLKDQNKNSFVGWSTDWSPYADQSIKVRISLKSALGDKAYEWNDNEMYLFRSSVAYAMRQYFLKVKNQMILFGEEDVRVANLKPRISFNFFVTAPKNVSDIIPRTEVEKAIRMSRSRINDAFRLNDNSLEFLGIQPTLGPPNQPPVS
As for B1, the binding result is reported as “binds”.
With B2, the binding result is recorded as “binds”.
Regarding B3, the binding result is listed as “binds”.
Then B4, with “binds”; and B5, with “binds”.
